Source: US8652467B2, “Dek protein compositions and methods of using the same” (The Regents of the University of Michigan, priority 2005, dated 2014)
“Also recorded” adds a separate entry of the source.

Experiments:
[1] = test system: purified neutrophils (PMN); assay: In vitro migration assay with purified neutrophils; format: cell-based, human; conditions: various concentrations of recombinant DEK in lower chamber; 79 nM vs control
Method: Purified neutrophils (PMN) were treated with IL-8 (50 nM), the CXCR2 small molecule inhibitor SB225002 (3 μM), DEK (79 nM), IL-8 plus SB225002, or DEK plus SB225002 for 5 min at room temperature before and then during the migration assay. After 1 h, the number of fluorescently labeled migrating cells in the lower chamber was determined at 485 nM/535 nm wavelengths by Tecan GENios (Phenix, Austria). […] The results are expressed as the average fold increase in the number of cells migrating toward DEK compared to control wells containing medium only. White blood cells were isolated from venous blood from healthy donors as described above, and were depleted of monocytes by adherence to plastic for 2 h as described in the Cell Preparation section. […] The cells were washed and resuspended at 1×10^6 cells/ml in serum-free RPMI medium, and 1×10^5 labeled cells in 100 μl were added to the upper chamber of a 24-well Transwell chemotaxis insert with pore size of 3 μm or 5 μm (Corning, N.Y.). The lower chambers contained serum-free RPMI medium alone, recombinant DEK made in baculovirus, or a deletion mutant of the β form of human GLI-2 (See, e.g., Smith et al., J Virol 75, 2301-13 (2001)) produced in baculovirus as the control protein. After 30 min to 1 h, the number of fluorescently labeled migrating cells in the lower chamber was determined at […] wavelength using a Tecan GENios plate-reader (Phenix, Austria). The results were expressed as the average fold increase of the number of cells migrating toward lower chambers containing DEK divided by the number of cells migrating toward the control wells (medium alone). Forty ml of venous blood was collected from healthy volunteers into a 50 ml sterile syringe containing a mixture of 7 ml 0.25 M Citrate (0.17 M NA Citrate and 0.083 M Citric Acid) and 6% Dextran in PBS buffer. The blood was incubated for 30 min at room temperature and the upper phase was collected and further separated by Ficoll as described above. The neutrophil fraction was collected and washed with HBSS buffer and then pelleted again. […]

[2] = test system: MDM and HeLa cells; assay: Uptake of recombinant DEK by cells; format: cell-based, human; conditions: MDM (12-day) and HeLa cells

B1: DEK: full-length recombinant DEK protein produced in baculovirus (protein, UniProt P35659 1-375, looked up)
chain: MSASAPAAEGEGTPTQPASEKEPEMPGPREESEEEEDEDDEEEEEEEKEKSLIVEGKREKKKVERLTMQVSSLQREPFTIAQGKGQKLCEIERIHFFLSKKKTDELRNLHKLLYNRPGTVSSLKKNVGQFSGFPFEKGSVQYKKKEEMLKKFRNAMLKSICEVLDLERSGVNSELVKRILNFLMHPKPSGKPLPKSKKTCSKGSKKERNSSGMARKAKRTKCPEILSDESSSDEDEKKNKEESSDDEDKESEEEPPKKTAKREKPKQKATSKSKKSVKSANVKKADSSTTKKNQNSSKKESESEDSSDDEPLIKKLKKPPTDEELKETIKKLLASANLEEVTMKQICKKVYENYPTYDLTERKDFIKTTVKELIS
modifications: full-length
notes: full-length recombinant DEK protein produced in baculovirus
[1]
  neutrophil migration toward DEK: statistically significant; also recorded: specifically migrate toward DEK in a dose-dependent manner
[2]
  uptake by cells: can be taken up
